Measured values as given in the domain aggregation screens of Martell et al. (2025).

Experiment: soluble fraction after stress (log2 fold change); higher = more stays soluble; pooled small domains, quantitative proteomics
Conditions: stress: 75 degC
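Further: 20 min heating vs room temperature control held 20 min.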

| Sequence | soluble fraction (log2) |
| --- | --- |
| HMTFAPTAIPSLTRPMEELMSWSFTPNEAFILSRINGLWDVRSIAKISPFPEGEVLRVFEKLHDGGLIRW | -3.6 |
| HMTFNEPSPKEIMDYSLSRGYKVDADAFIDFYRGKAKAYGKEGLWLDGRGRLVKDWRAKLRVVWFKDENKL | -1.36 |
| HMTGDIGAEAAKAAALAHAGVTESQTAKMKVDRDWDDGRLEYDVEFDVGRTEYEYTIDGVTGAVLEYEQDI | 0.0252 |
| HMTGDIIKQERKKKNLTQIELAKKVGISRNALINYEAGTRIPPISVQLKLADVLGIDILDLK | -1.64 |
| HMTGDISRALDQLPADMRTVLILYALEKQRYEDIAQITGVSVGTVKSRLNRARQKLAAILANQREQNE | -1.49 |
| HMTGDNQTIGGGGFHHVAIRAHDFDASVKFYGETLGFREKIAWGEGDKRAIMMDTGDGNYIEIF | 0.0318 |
| HMTGEDIKKVILREYAREKSLLSIFHELSKVNSNVTLEVIKDIITNIDKLPNDLLQYFKEESSFYQKNKN | -1.46 |
| HMTGGIWVQIQGAVERPGVYSLPRDSRLKDLLEAAGGFGRDADTEKVNQAARLEDGAMYRVPRQGEG | 0.49 |
| HMTGGLLVHVAGAVGAPGVVSLPEGARVVDAIEAAGGAREDADTDQLNLARPVVDGEQVRVPVVGEVLE | -0.00946 |
| HMTGINMSYEEYKAMADIIVPLIKAGHSPYHIVTNHPELNISEKTLYNYIENGIFREFGLLDINL | -1.59 |
| HMTGIRVYPNPTSSELRFSVATDAALYDATGARLRVVRGSDMMDIRDLASGTYYVRFADGSTQSVVVT | -0.755 |
| HMTGKLGKIILQPKQTVYGITKKYQISESELRRLNPQLDSHLKIGDEVILPAENIKKFGGNQPVAVS | 0.268 |
| HMTGKTTLEYLNPLLERGIPVWDYLAKASGKAKEEVQEMVSKGLVPGAEAAKAIADYMGAEFAGSMA | -0.0343 |
| HMTGKVKWYDADKGFGFVTEDGGRDVYVRKSALPQGVETLKAGQRLEFGIAEGRRGPQALSVR | -0.0771 |
| HMTGLFSPTEQTRHSKTGATLYSVKLAERIERNAFQSLKKRAKEHDGYYSSFTRSFLFDTPEDAEAFRGT | -0.371 |
| HMTGMEASLSKLLQGEQFADLRKALIDKGIRKLEAFKRLNLWVFMNRNRLYSIGQRQTVYSTLQRALASE | -0.0934 |
| HMTGREIDQLFSVVNDLKAKGVGMVFISHHLDEIARIADSVSVLRDGGFVAEVPASTPEKKLVTLMVGRDI | -0.228 |
| HMTGWINVDKNWYYMNNSGSMARGMINVNNVSYYLDENGKMLSNTTVNVNGTDYRIDASGAMSQI | -0.182 |
| HMTHEIKIKSHSLFASEGTKYQWYLNNIKINDATSQELEITSPGIYKLEMTNFDGDVIEKQIIVGLTNS | -1.91 |
| HMTHHGHSIKRIRDMLGIKQETLAAELNMTQQAFSKLEQKEQIEDEMLDKIAKILHVSTEALKT | 0.0102 |
| HMTHPAHLARIGALIRSARQHEGLTQAQLAELLGTSQSAIHRIEQGGQNITLDMLTRISAALDSEIVTIG | -1.51 |
| HMTHPQVEAYLDDLARMLADIDPGERDDILASVREHLDAEIAAGHGSDAVVNATLLRLGPPEQVAAAARTN | -0.0131 |
| HMTIAFPSNDVDAVVGYFESRGFDRTASISTATVILQQAKIDGVKVFELIDTLQGMDKVQLSYIVTEILN | 0.0608 |
| HMTIATLGERIRKLRKERGLTLAELAGDKLSKGMLSLIENNRAKPSMESLEYIAKRLGVEPAELLE | 0.0696 |
| HMTIENTDTFLETLWEQVQRASVDENGIITSRVLIWDEGTKLDEILSWFDKRHSLGALYLQFG | -2.66 |
| HMTIFGWQTDETGKWYRNADGTFFEAGWKEIDGAKYYFDENGYVKTGWLELDGKDYYFDEEGRYDSSKVR | 0.299 |

| Sequence | soluble fraction (log2) |
| --- | --- |
| HMTIGLLISKARTNSGLTQAELATRAGTSQAAIARYESDRVSPSVSTLERVLRAAGEELVISSS | -0.209 |
| HMTINPFSTLAVRELEILHYLLNGHRTKEIATNLGLKMNTVSTIKSNIFEKVKADSFTHLLQLAHVHQIS | -1.07 |
| HMTIQNSILDEIPNIGASRKRAILEAFGSVHRLRKASPEMISAKVEGIGPEMAQAIHDYLVKHPAT | 0.066 |
| HMTISAQAITPRLEVIKNFVLMEEWDAAQTQLEKLRSFTEIWSLDPLFSAMKKKDGQKISDWITGFIKDNM | -2.39 |
| HMTISDEAMQAGRDAFIQALVAMGAEKNADAMASIEKALSADPGNKEYLATRDLIKKSMGMKK | 0.981 |
| HMTISGSDLKAQREALNIPLERIAKETRIRLSILQDLEDEEYSELSSSAQTKGFLRLYADYLSSHKQRLG | -1.06 |
| HMTITDDETHKVLEEGASRMSEGLTFRDLVDLDRLHLTARGVIQKVLNENRIDADVDTIANMAQKLVARVS | -0.0881 |
| HMTKAEVLLDLQQRIISEEFLPGSWLVERDLSSEYGLSRTPIREILNKLVILGLISVQKNRGYQVR | -1.29 |
| HMTKAILTANDVRNGDIVFWTADQRWSTSIDDAAIGYGKDDTDQLADAGKQAEAANTVVGAYLIALR | -0.102 |
| HMTKASEELYFRLKEELGTGVIVEHKKYGEGVVTQLDDRLVHIMFQDDTLRMMDLKILANAGLLKVK | -1.57 |
| HMTKDYVVIYEGLAQTEAVEILGKLQEMGVSAKVDHNDSILVLKDEEDQIRMALATEGYPKS | 0.158 |
| HMTKEEKEKREKYEKLMKKADELVTAKNHKEAVTVLGQAKAYANPQQTKEIEEKIKAQTAELDKG | 0.548 |
| HMTKGVQMFAEQLKRTRQSRHYSQAEIASKLGVTQQAIAKWETGVSTPSPTSISKLSDILGISTDVLLKGA | 0.0396 |
| HMTKIAFPQMLNKYRLQKNLTMEQLAEEVGKTKSTISKWEAGTRSPKIYEIEEIAKYFGVEPQTMMF | -0.107 |
| HMTKINAPMPGNILDVKVNVGDHVEANQLVLMLEAMKMENEIFTPVAGTVVGVHVKKGDSVNSDDLLISI | -0.512 |
| HMTKKEFLDILTESLAGNVPASEIEENIRYYKDYIENGEESEEKALEQLGDPHLIARTIIDSFIA | -0.0899 |
| HMTKLLSALQADKFAKKLANDTNFGSNFARMGESAMDFTNRLVEELQRDEGKVANYMPYLTKLGF | 0.204 |
| HMTKLSPKEKSILHIIGDNAGIKSGQIAKRLDIPSPTVKRILSDLVSQNLIEKFGTGPGTNYSI | -0.0131 |
| HMTKLTTDERSVYLHIQNKPGVSASSIREALGYKKSKLTSILAQLLEVHKIIDTEGTGKSLKYIL | 0.0994 |
| HMTKMTPNRQLVLSVLQSSGKPLSAYELLDRLREQGTQWQPPTAYRALDYLVEQGLAHYLQSIQKYV | -1.73 |
| HMTKNEFLASFQNELQKRHIPDWEDVVSEYEQHFALKQADGFSEEEIAAKLGAPAELAAQFEA | 0.155 |
| HMTKQIILVHVAGKVKKPDVYPLLQGSRVADAIKAAGGAKKGVELNDINLARVLIDGEQVFVGYVPE | -2.2 |
| HMTKQRSAIMNLLAERNTPLTAEEIGEAIAPSYPKLALSTVYRNLELFTNAGLLEKSFFQDGITRYSLTK | -0.976 |
| HMTKRTEPSILQNFDTEIAELIAKNRGISIMDALRIFLASKTHEMLENDEMKLWYFSPLAVFDMWENE | 0.318 |
| HMTKSIDFDFREDGVYIKADKDVTIVDIVTKIDLRRIQSVDLTKIKQMLEIGSLDNWIKIAEPQMEK | -2 |
| HMTKSTLQRQKIIADLIESGNISSQNQLKGLLKKNSLLITQATLSRDLSELGAIKKRQKDGLLVYVLPK | -0.365 |

| Sequence | soluble fraction (log2) |
| --- | --- |
| HMTKTKADKIDYAIGDSGTEPPTEDKWTDLAHLPLIKAGQFQWTRRTEYYSDGSTAVSYNIAKSE | 0.096 |
| HMTKYKEIVDQLRTNIYEGVFPALSKLPEQTALAKRFQTSRMTIQKALNQLKQEGLISTKRGHGTYVNSAT | -0.74 |
| HMTKYVEGQKYVFEFRDGTITIGTYLRTGEGNIYIKDLSGEDIYIPKIMIAQIHLATDDNVKGDEFWF | -1.26 |
| HMTLDSLEKLSVNDLEKMLVNMPVGYKTIFLLSVIDEYSHKEIGELLGITPETSRSQLFRAIKWIKTNIF | -0.631 |
| HMTLGARTLAAIQSLPKVQQAVFTMKHFEGLKYREISQITGTSEGALKASYHIALEKIKAFLREK | -2.18 |
| HMTLGEHILQYRTARGWSQEDLANALEVSRQSVSKWETDASTPELDKIVRLSEIFQVSIDELVTGKA | -0.316 |
| HMTLGENLQNLRKEAGLSQEQVAQQLFVSRQTVSKWENNLAEPGVENLKALARLYGVTLDRLVGM | -0.223 |
| HMTLKVQLSEISKMVSLSYIAKKYFNKSQSWLSQRINGNTIHNKPAKFTSEELATLQFALKDIGNILNSTV | -2.6 |
| HMTLLVPASKEAILGGLAKIDALKVILKPEKDYSKTHAMTIGTKDEVIAKLDSFLSGMDSEKNQVLIQEYM | 0.456 |
| HMTLSDIGHAVRTRRTELGLSQVQLARLSGLSRQTLVGLENGTLNDLGINRVAQLLAVLGLDAP | -2.02 |
| HMTLSHAINRLRLNANMSQEQFAGLFHVSQQSVQKWESGDSVPELSKLIAIAKHFGISLDALILGN | -2.52 |
| HMTLTEQQITDNYKELRKIINDTFSGLRLDKLNHMYDDLEDRMVVAPASSVEHYHNSKVGGYVEHILHVI | -0.124 |
| HMTLTIEDGYVNAKLKTTVEGLAEDSTIKVDSIEYTNAGKNDILTVFVEDKPYRVEKYKINIAPEDS | 0.139 |
| HMTLVSALDQKTKDSAYYRGTYLAGKISAGKMTKQEAVADIMKNYDGNTAAMKVAAEKAGVSDLLSQTVL | 0.0489 |
| HMTMKQVFIETDANVNQKIMLNEKEAHHLFDVLRTSDKETIRVVTNTSQVFLARVQQKPYIYLFDKMTVE | -2.49 |
| HMTMNYFIIENNQQVGPLTLEQLVARNITSDTLVWKEGMEDWQPAWKVDELHTVLDQIRANAEQ | -0.00196 |
| HMTMVVIMNADATQADIEGVISAIEEKGLEAKVMEGAHQKIVGVIGDKTKLAATPLDAMHGVETTVAIS | -0.244 |
| HMTNATVGQIKKLARASILYGNSNLSGNRYTYKANTTVTILQNISSNVDKIRVNVTGRVAYIDNSNYSSST | -3.59 |
| HMTNEQLSKAKSWVQIAVYAAEKLYGAGNGDQKLVYAEEILRKHGIRLDTATLKAMIDAQIKEMEN | -1.01 |
| HMTNEWRKILSNLNGKYQIVMELFYVDGFSTKEIARMLHITEVNVRSRMVRGRKQLEQILTVR | -0.0301 |
| HMTNPPITTEARNLVVEQLKELNALHPEKARELADSYKKEFNVPKVIGHITEARHGEFLALAISKIDES | -0.241 |
| HMTNPPTPADTLFNTVRGVLQSILKSPMKDTEVASALNVSKAQARSWLQRLSDEGLIEKRKNPTAYVL | -0.592 |
| HMTNTYEVIKNDIIFGVLPPLKKLKLLELKKKYITSVSTLREILSRLSGDGFVVSKEQKGFYVSAV | -0.0741 |
| HMTNVNSLIGKKAIVIQDIDNLKSTGQVKIGGEIWSAQSESNDIISKDTEVEIVKIDGVKLIVRLVPV | -0.153 |
| HMTNYNTEKIIPEEQAGKRLDVVLANIFPEFSRSRLKNWIIDGFILVDGKVLRPRDFVTGGELVSIDVIV | -0.123 |
